Measured values from PMC8560851.

Molecular target: Full-length isoform 165 of human VEGF-A (human) (UniProt P15692)
Test: SPR; Biacore T200, 25 °C, PBS with 0.05% Tween 20 and 3.4 mM EDTA; VEGF-A amine-coupled to a CM-5 chip; Fab injected in single cycle kinetics with five increasing concentrations; double referenced; fit to a 1:1 Langmuir binding model

Chain of Full-length isoform 165 of human VEGF-A (human) (P15692 other isoform, or with tags, fused parts or gaps): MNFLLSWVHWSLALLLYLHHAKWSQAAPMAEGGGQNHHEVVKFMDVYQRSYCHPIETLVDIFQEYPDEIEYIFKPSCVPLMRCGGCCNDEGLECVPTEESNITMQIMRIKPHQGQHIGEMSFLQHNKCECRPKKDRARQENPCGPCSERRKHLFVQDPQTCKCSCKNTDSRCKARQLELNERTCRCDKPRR

Kd [nM] | Binder
8 | bH1 Fab H3 variant 16_0325 (Fab, V domains shown) VH: EVQLVESGGGLVQPGGSLRLSCAASGFNIKDTYIHWVRQAPGKGLEWVARIYPTNGYTRYADSVKGRFTISADTSKNTAYLQMNSLRAEDTAVYYCARGGAVAGTGVYYFDYWGQGTLVTVSS VL: DIQMTQSPSSLSASVGDRVTITCRASQDIPRSISGYVAWYQQKPGKAPKLLIYWGSYLYSGVPSRFSGSGSGTDFTLTISSLQPEDFATYYCQQHYTTPPTFGQGTKVEIK
8 | bH1 Fab H3 variant 14_0112 (Fab, V domains shown) VH: EVQLVESGGGLVQPGGSLRLSCAASGFNIKDTYIHWVRQAPGKGLEWVARIYPTNGYTRYADSVKGRFTISADTSKNTAYLQMNSLRAEDTAVYYCAKGGSSSGPYHFEYWGQGTLVTVSS VL: DIQMTQSPSSLSASVGDRVTITCRASQDIPRSISGYVAWYQQKPGKAPKLLIYWGSYLYSGVPSRFSGSGSGTDFTLTISSLQPEDFATYYCQQHYTTPPTFGQGTKVEIK
